Data from patent US20100261660A1 (published 2010).

B1: Round 2 CD28B2-8 (ligand)
chain: ITPKSVTKRVKETVMLSCDYNTSTEELTSLRIYWQKDSKMVLAILPGKVQVWPEYKNRTITDMNDNPRIVILALRLSDKGTYTCVIQKPVLKGAYKLEHLASVRLMIRADFPVPTINDLGNPSPNIRRLICSTSGGFPRPHLYWLENGEELNATNTTVSQDPGTELYMISSELDFNVTNNHSIVCLIKYGELSVSQIFPWSKPKQEPPIDQLPFWVIIPVSGALVLTAVVLYCLACRHVARWKRTRRNEETVGTERLSPIYLGSAQSSG
B2: Round 2 CD28BP-2 (ligand)
chain: ITPKSVTKRVKETVMLSCDYSTSTEELTSLRIYWQKDSKMVLAILPGKVQVWPEYKNRTITDMNDNPRIVILALRLSDSGTYTCVIQKPVLKGAYKLEHLASVRLMIRADFPVPTINDLGNPSPNIRRLICSTSGGFPRPHLYWLENGEELNATNTTLSQDPETKLYMISSELDFNVTNNHSIVCLIKYGELSVSQIFPWSKPKQEPPIDQLPFWVIIPVSGALVLTAVVLYRPACRHVARWKRTRRNEETVGTERLSPIYLGSAQSSG
B3: Round 2 CD28BP-4 (ligand)
chain: ITPKSVTKRVKETVMLSCDYNTSTEELTSLRIYWQKDSKMVLAILPGKVQVWPEYKNRTITDMNDNPRIVILALRLSDSGTYTCVIQKPVLKGAYKLEHLASVRLMIRADFPVPTINDLGNPSPNIRRLICSTSGGFPRPHLCWLENGEELNATNTTVSQDPGTELYMISSELDFNVTNNHSIVCLIKYGELSVSQIFPWSKPKQEPPIDQLPFWVIIPVSGALVLTAVVLYCLACRHVARWKRTRRNEETVGTERLSPIYLGSAQSSG
B4: Round 2 CD28BP-5 (ligand)
chain: ITPKSVTKRVKETVMLSCDYSTSTEELTSLRIYWQKDSKMVLAILPGKVQVWPEYKNRTITDMNDNPRIVILALRLSDKGTYTCVVQKPVLKGAYKLEHLTSVRLMIRADFPVPTINDLGNPSPNIRRLICSTSGGFPRPHLYWLENGEELNATNTTVSQDPGTELYMISSELDFNVTNNHSIVCLIKYGELSVSQIFPWSKPKQEPPIDQLPFWVIIPVSGALVLTAVVLYCLACRHVARWKRTRRNEETVGTERLSPIYLGSAQSSG
B5: Round 2 CD28BP-13 (ligand)
chain: ITPKSVTKRVKETVMLSCDYSTSTEELTSLRIYWQKDSKMVLAILPGKVQVWPEYKNRTITDMNDNPRIVILALRLSDSGTYTCVIQKPVLKGAYKLEHLASVRLMIRADFPVPTINDLGNPSPNIRRLICSTSGGFPEPRLAWMEDGEELNAVNTTVDQDLDTELYSVSSELDFNVTNNHSIVCLIKYGELSVSQIFPWSKPKQEPPIDQLPFWVIIPVSGALVLTAVVLYCLACRHVARWKRTRRNEETVGTERLSPIYLGSAQSSG
B6: Round 2 CD28BP-16 (ligand)
chain: ITPKSVTKRVKETVMLSCDYNTSTEELTSLRIYWQKDSKMVLAILPGKVQVWPEYKNRTITDMNDNPRIVILALRLSDSGTYTCVIQKPVLKGAYKLEHLTSVRLMIRADFPVPTINDLGNPSPNIRRLICSTSGGFPRPHLYWLENGEELNATNTTVSQDPGTELYMISSELDFNVTNNHSIVCLIKYGELSVSQIFPWSKPKQEPPIDQLPFWVIIPVSGALVLAAVVLYCLACRHVARWKRTRRNEETVGTERLSPIYLGSAQSSG
B7: Round 2 CD28C6-1 (ligand)
chain: ITPKSVTKRVKETVMLSCDYSTSTEELTSLRIYWQKDSKMVLAILPGKVQVWPEYKNRTITDMNDNPRIVILALRLSDSGTYTCVIQKPVLKGAYKLEHLASVRLMIRADFPVPTINDLGNPSPNIRRLICSTSGGFPRPHLYWLENGEELNATNTTVSQDPGTELYMISSELDFNVTNNHSIVCLIKYGELSVSQIFPWSKPKQEPPIDQLPFWVIIPVSGALVLTAVVLYCLACRHGARWKRTRRNEETVGTERLSPIYLGSAQSSG
B8: Round 2 CD28C8-6 (ligand)
chain: ITPKSVTKRVKETVMLSCDYNTSTEELTSLRIYWQKDSKMVLAILPGKVQVWPEYKNRTITDMNDNPRIVILALRLSDSGTYTCVIQKPVLKGAYKLEHLASVRLMIRADFPVPTINDLGNPSPNIRRLICSTSGGFPRPHLYWLENGEELNATNTTVSQDPGTELYMISSELGFNVTNNHSIVCLIKYGELSVSQIFPWSKPKQEPPIDQLPFWVIIPVSGALVLTAVVLYCLACRHVARWKRTRRNEETVGTERLSPIYLGSAQSSG
B9: Round 2 CD28C11-5 (ligand)
chain: ITPKSVTKRVKETVMLSCDYNTSTEELTSLRIYWQKDSKMVLAILPGKVQVWPEYKNRTITDMNDNPRIVILALRLSDSGTYTCVIQKPVLKGAYKLEHLTSVRLMIRADFPVPTINDLGNPSPNIRRLICSTSGGFPRPHLYWLENGEELNATNTTVSQDPGTELYMISSELDFNVTNNHSIACLIKYGELSVSQIFPWSKPKQEPPIDQLPFWVIIPVSGALVLTAVVLYCLACRHVARWKRTRRNEETVGTERLSPIYLGSAQSSG
B10: Round 2 CD28D2-9 (ligand)
chain: ITPKSVTKRVKETVMLSCDYNTSTEELTSLRIYWQKDSKMVLAILPGKVQVWPEYKNRTITDMNDNPRIVILALRLSDSGTYTCVIQKPVLKGAYKLEHLTSVRLMIRADFPVPTINDLGNPSPNIRRLICSTSGGFPRPHLYWLENGEELNATNTTLSQDPETELYMISSELDFNVTNNHSIVCLIKYGELSVSQIFPWSKPKQEPPIDQLPFWVIIPVSGALVLTAVVLYCLACRHVARWKRTRRNEETVGTERLSPIYLGSAQSSG
B11: Round 2 CD28D8-9 (ligand)
chain: ITPKSVTKRVKETVMLSCDYSTSTEELTSLRIYWQKDSKMVLAILPGKVQVWPEYKNRTITDMNDNPRIVILALRLSDSGTYTCVIQKPVLKGAYKLEHLTSVRLMIRADFPVPTINDLGNPSPNIRRLICSTSGGFPRPHLYWLENGEELNATNTTVSQDPGTELYMISSELDFNVTNNHSIVCLIKYGELSVSQIFPWSKPKQEPPIDQLPFWVIIPVSGALVLTAVVLYCLACRHVARWKRTRRNEETVGTERLSPIYLGSAQSSG
B12: Round 2 CD28E2-4 (ligand)
chain: ITPKSVTKRVKETVMLSCDYSTSTEELTSLRIYWQKDSKMVLAILPGKVQVWPEYKNRTITDMNDNPRIVILALRLSDKGTYTCVIQKPVLKGAYKLEHLASVRLMIRADFPVPTINDLGNPSPNIRRLICSTSGGFPRPHLYWLENGEELNATNTTVSQDPGTELYMISSELDFNVTNNHSIVCLIKYGELSVSQIFPWSKPKQEPPIDQLPFWVIIPVSGALVLTAVVLYCLACRHVARWKRTRRNEETVGTERLSPIYLGSAQSSG
B13: Round 2 CD28E5-2 (ligand)
chain: ITPKSVTKRVKETVMLSCDYNTSTEELTSLRIYWQKDSKMVLAILPGKVQVWPEYKNRTITDMNDNPRIVILALRLSDSGTYTCVIQKPDLKGAYKLEHLASVRLMIRADFPVPTINDLGNPSPNIRRLICSTSGGFPRPHLYWLENGEELNATNTTLSQDPETKLYMISSELDFNVTNNRSIVCLIKYGELSVSQIFPWSKPKQEPPIDQLPFWVIIPVSGALVLTAVVLYCLACRHVARWKRTRRNEETVGTERLSPIYLGSAQSSG
B14: Round 2 CD28E9-6 (ligand)
chain: ITPKSVTKRVKETVMLSCDYNTSTEELTSLRIYWQKDSKMVLAILPGKVQVWPEYKNRTITDMNDNPRIVILALRLSDKGTYTCVIQKPDLKGAYKLEHLASVRLMIRADFPVPTINDLGNPSPNIRRLICSTSGGFPRPHLYWLENGEELNATNTTVSQDPGTELYMISSELDFNVTNNHSIVCLIKYGELSVSQIFPWSKPKQEPPIDQLPFWVIIPVSGALVLTAVVLYCLACRHVARWKRTRRNEETVGTERLSPIYLGSAQSSG
B15: Round 2 CD28E10-6 (ligand)
chain: ITPKSVTKRVKETVMLSCDYNTSTEELTSLRIYWQKDSKMVLAILPGKVQVWPEYKNRTITDMNDNPRIVILALRLSDSGTYTCVIQKPVLKGAYKLEHLASVRLMIRADFPVPTINDLGNPSPNIRRLICSTSGGFPRPHLYWLENGEELNATNTTLSQDPETELYMISSELDFNVTNNHSIVCLIKYGELSVSQIFPWSKPKQEPPIDQLPFWVIIPVSGALVLTAVVLYCLACRHVARWKRTRRNEETVGTERLSPIYLGSAQSSG
B16: Round 2 CD28F3-6 (ligand)
chain: ITPKSVTKRVKETVMLSCDYSTSTEELTSLRIYWQKDSKMVLAILPGKVQVWPEYKNRTITDMNDNPRIVILALRLSDSGTYTCVIQKPDLKGAYKLEHLTSVRLMIRADFPVPTINDLGNPSPNIRRLICSTSGGFPRPHLYWLENGEELNATNTTLSQDPETKLYMISSELDFNVTNNHSIVCLIKYGELSVSQIFPWSKPKQEPPIDQLPFWVIIPVSGALVLTAVVLYCLACRHVARWKRTRRNEETVGTERLSPIYLGSAQSSG
B17: Round 2 CD28F7-2 (ligand)
chain: ITPKSVTKRVKETVMLSCDYSTSTEELTSLRIYWQKDSKMVLAILPGKVQVWPEYKNRTITDMNDNPRIVILALRLSDSGTYTCVIQKPVLKGAYKLEHLASVRLMIRADFPVPTINDLGNPSPNIRRLICSTSGGFPEPRLAWMEDGEELNAVNTTVDQDLDTELYSVSSELDFNVTNNHSIVCLIKYGELSVSQIFPWSKPKQEPPIDQLPFWVIIPVSGALVLTAVVLYCLACRHVARWKRTRRNEETVGTERLSPIYLGSAQSSG
B18: Round 2 CD28F8-4 (ligand)
chain: ITPKSVTKRVKETVMLSCDYSTSTEELTSLRIYWQKDSKMVLAILPGKVQVWPEYKNRTITDMNDNPRIVILALRLSDSGTYTCVIQKPVLKGAYKLEHLASVRLMIRADFPVPTINDLGNPSPNIRRLICSTSGGFPRPHLYWLENGEELNATNTTLSQDPETKLYMISSELDFNVTNNHSIVCLIKYGELSVSQIFPWSKPKQEPPIDQLPFWVIIPVSGALVLTAVVLYCLACRHVARWKRTRRNEETVGTERLSPIYLGSAQSSG
B19: Round 2 CD28G2-8 (ligand)
chain: ITPKSVTKRVKETVMLSCDYNTSTEELTSLRIYWQKDSKMVLAILPGKVQVWPEYKNRTITDMNDNPRIVILALRLSDSGTYTCVIQKPVLKGAYKLEHLASVRLMIRADFPVPSINDLGNPSPNIRRLICSTSGGFPRPHLYWLENGEELNATNTTVSQDPGTELYMISSELDFNVTNNHSIVCLIKYGELSVSQIFPWSKPKQEPPIDQLPFWVIIPVSGALVLTAVVLYCLACRHVARWKRTRRNEETVGTERLSPIYLGSAQSSG

target: T1, Soluble CD28-Ig (extracellular domain of human CD28 fused to the Fc portion of human IgG1) (human, UniProt P10747 19-152, biotin-conjugated (NHS-biotin) in the FACS binding assays); experiment: competitive FACS on transfected cells, biotin-sCD28-Ig with FITC-sCTLA-4-Ig; grade 0-2 of CD28/CTLA-4 ratio vs WT hB7-1
T1 construct: extracellular domain; bought from R&D Systems; also called sCD28-Ig; CD28-Ig Fc; not shown: Fc portion of human IgG1

Q: For B1, which “Binding Score” value is on record?
A: 1

Q: For B2, which “Binding Score” value is on record?
A: 2

Q: For B3, which “Binding Score” value is on record?
A: 2

Q: Which “Binding Score” value does the source give for B4 here?
A: 2

Q: Which “Binding Score” value does the source give for B5 here?
A: 2

Q: With B6 as the binder, how does the “Binding Score” value read?
A: 2

Q: How did the “Binding Score” value turn out when B7 was run?
A: 1

Q: For B8, which “Binding Score” value is on record?
A: 2

Q: B9 was tested. Which “Binding Score” value did it give?
A: 2

Q: With B10 as the binder, how does the “Binding Score” value read?
A: 1

Q: Which “Binding Score” value does the source give for B11 here?
A: 1

Q: For B12, which “Binding Score” value is on record?
A: 1

Q: Which “Binding Score” value does the source give for B13 here?
A: 0

Q: For B14, which “Binding Score” value is on record?
A: 0

Q: With B15 as the binder, how does the “Binding Score” value read?
A: 1

Q: B16 was tested. Which “Binding Score” value did it give?
A: 0

Q: Which “Binding Score” value does the source give for B17 here?
A: 2

Q: How did the “Binding Score” value turn out when B18 was run?
A: 1

Q: B19 was tested. Which “Binding Score” value did it give?
A: 1
